Measured values taken from paper PMC4506539, “Crystallographic structure of a small molecule SIRT1 activator-enzyme complex” (Nature Communications, 2015).

T1: hSIRT1 catalytic core, residues 229–516 (human, UniProt Q96EB6 229-516)
T1 sequence (looked up): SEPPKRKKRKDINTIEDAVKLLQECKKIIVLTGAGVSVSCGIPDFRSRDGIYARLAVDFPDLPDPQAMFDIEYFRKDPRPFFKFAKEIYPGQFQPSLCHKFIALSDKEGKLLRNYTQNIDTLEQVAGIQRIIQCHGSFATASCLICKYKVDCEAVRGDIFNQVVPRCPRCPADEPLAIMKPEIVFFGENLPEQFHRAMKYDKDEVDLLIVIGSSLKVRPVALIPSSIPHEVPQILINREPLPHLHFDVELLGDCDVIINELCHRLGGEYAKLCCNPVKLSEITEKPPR

T2: full-length human SIRT1 (human, UniProt Q96EB6 1-747)
T2 construct: human SIRT1, full length, 747 amino acids; also called hSIRT1; wild-type hSIRT1
T2 sequence (looked up): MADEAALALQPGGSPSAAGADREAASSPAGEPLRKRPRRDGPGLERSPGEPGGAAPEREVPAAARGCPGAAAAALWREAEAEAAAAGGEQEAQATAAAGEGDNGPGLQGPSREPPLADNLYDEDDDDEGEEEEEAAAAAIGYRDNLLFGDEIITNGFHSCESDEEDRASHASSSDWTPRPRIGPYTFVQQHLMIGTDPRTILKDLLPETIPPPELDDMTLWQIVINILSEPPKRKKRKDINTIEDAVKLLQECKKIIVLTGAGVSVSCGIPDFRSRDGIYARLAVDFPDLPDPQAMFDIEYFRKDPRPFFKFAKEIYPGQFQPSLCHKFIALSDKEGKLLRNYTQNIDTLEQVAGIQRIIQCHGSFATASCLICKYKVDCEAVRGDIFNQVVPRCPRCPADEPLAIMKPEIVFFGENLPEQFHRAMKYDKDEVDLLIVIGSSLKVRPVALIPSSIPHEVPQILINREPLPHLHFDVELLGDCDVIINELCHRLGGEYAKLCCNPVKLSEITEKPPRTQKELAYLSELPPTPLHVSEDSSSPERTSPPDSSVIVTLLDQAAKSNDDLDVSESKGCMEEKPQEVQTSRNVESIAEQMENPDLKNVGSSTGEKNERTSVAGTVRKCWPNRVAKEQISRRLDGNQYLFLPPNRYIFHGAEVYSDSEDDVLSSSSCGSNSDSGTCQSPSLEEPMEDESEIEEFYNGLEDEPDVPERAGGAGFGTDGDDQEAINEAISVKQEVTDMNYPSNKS


How the values were obtained:
[1] = target: T1, hSIRT1 catalytic core, residues 229–516; assay: cell-based or functional assay
full-length human SIRT1 = target: T2, full-length human SIRT1; assay: HDX-MS; 0.77 mg/ml full-length SIRT1 ± 3.88 mM Ac-p53(W5) ± 192 μM STAC 1 in 1.9% DMSO, mixed 1:1 with 100 mM phosphate pH read 7.0 in D2O; 0 °C, 15-5,000 s; conditions: both partners purified

| deacetylase activity of hSIRT1cd after addition of the CTR peptide, relative to full-length hSIRT1 (∼15% without the peptide) [1] | binding result (full-length human SIRT1) | Binder |
| --- | --- | --- |
| 80 % of the activity of full-length hSIRT1 | – | QYLFLPPNRYIFHGAEVYSDSEDDV (peptide, UniProt Q96EB6 641-665, looked up) [human C-terminal regulatory segment (CTR) peptide of SIRT1] |
| – | binds | Ac-RHKK(Ac)W-NH2 (p53-based peptide Ac-RHKKAcW-NH2; also called Trp-5mer; p53-derived peptide substrate; source: synthetic peptide, bought: Biopeptide) [Ac-p53(W5) (Ac-RHKKAcW-NH2)] |
